Consider 8 molecules from patent publication US20150218594A1, “CELL-FREE AND MINIMIZED METABOLIC REACTION CASCADES FOR THE PRODUCTION OF CHEMICALS” (CLARIANT PRODUKTE (DEUTSCHLAND) GMBH, priority 2012, published 2015).

B1: S405C: optimized Thermoplasma acidophilum aldehyde dehydrogenase with the mutation of S405C (protein)
chain: MDTKLYIDGQWVNSSSGKTVDKYSPVTGQVIGRFEAATRDDVDRAIDAAEDAFWAWNDLGSVERSKIIYRAKELIEKNRAELENIIMEENGKPVKEAKEEVDGVIDQIQYYAEWARKLNGEVVEGTSSHRKIFQYKVPYGIVVALTPWNFPAGMVARKLAPALLTGNTVVLKPSSDTPGSAEWIVRKFVEAGVPKGVLNFITGRGSEIGDYIVEHKKVNLITMTGSTATGQRIMQKASANMAKLILELGGKAPFMVWKDADMDNALKTLLWAKYWNAGQSCIAAERLYVHEDIYDTFMSRFVELSRKLALGDPKNADMGPLINKGALQATSEIVEEAKESGAKILFGGSQPSLSGPYRNGYFFLPTIIGNADQKSKIFQEEIFAPVIGARKISSVEEMYDLANDCKYGLASYLFTKDPNIIFEASERIRFGELYVNMPGPEASQGYHTGFRMTGQAGEGSKYGISEYLKLKNIYVDYSGKPLHINTVRDDLFQSGRPVLGSSHHHHHH
modifications: TaALDH-S405C-Chis
B2: F34M S405N: optimized Thermoplasma acidophilum aldehyde dehydrogenase with the mutations F34M and S405N (protein)
chain: B1 chain with F34M, C405N
modifications: TaALDH-F34M-S405N-Chis
B3: F34M W271S Y399C S405N: optimized Thermoplasma acidophilum aldehyde dehydrogenase with the mutations F34M, W271S, Y399C and S405N (protein)
chain: B1 chain with F34M, W271S, Y399C, C405N
modifications: TaALDH-F34M-W271S-Y399C-S405N-Chis
B4: Y399R: optimized Thermoplasma acidophilum aldehyde dehydrogenase with the mutation of Y399R (protein)
chain: B1 chain with Y399R, C405S
modifications: TaALDH-Y399R-Chis
B5: F34L: optimized Thermoplasma acidophilum aldehyde dehydrogenase with the mutation of F34L (protein)
chain: B1 chain with F34L, C405S
modifications: taALDH-F34L-Chis
B6: F34M W271S S405N: TaALDH variant with the mutations F34M, W271S and S405N; no SEQ ID printed (protein)
chain: B1 chain with F34M, W271S, C405N
B7: W271S: optimized Thermoplasma acidophilum aldehyde dehydrogenase with the mutation of W271S (protein)
chain: B1 chain with W271S, C405S
modifications: TaALDH-W271S-Chis
B8: F34L S405C: optimized Thermoplasma acidophilum aldehyde dehydrogenase with the mutations F34L and S405C (protein)
chain: B1 chain with F34L
modifications: TaALDH-F34L-S405C-Chis

Changes are numbered by the printed parent chain. In names and notes the source's numbering stands.

One data set in a line: Activity in solvents of Ta-ALDH variants (3 % isobutanol). Format: biochemical. The following applies: 3 % isobutanol, 2 mM NAD, 50° C., pH 7. On the procedure: (§1) Colonies of E. coli BL21 (DE3) containing Ta-ALDH library were transferred into 96-deepwell plates (Gainer BioOne) containing Zym5052 autoinduction medium (Protein Expression and Purification, 2005. 41(1): p. 207-234). Cultures were grown over night at 37° C., 1000 rpm. Cells were harvested by centrifugation at 5000 g at 2° C. for 2 min and lysed with B-Per® protein extraction reagent (Thermo Fisher Scentific, Rockford, USA). After incubation for 60 min at 50° C., insoluble cell debris and was removed by centrifugation at 5000 g at 20° C. for 30 min. Supernatants containing variants of TaALDH were tested for relative activity under standard conditions: 2 mM NAD, 1 mM D-glyceraldehyde in 50 mM HEPES (pH 7) at 50° C. After 20 min NADH formation was detected spectrophotometrically at 340 nm.
Activity in solvents of Ta-ALDH variants was tested under standard assay conditions containing additional solvent. After 20 min NADH formation was detected and compared to relative activity.
(§2) The values “relative to wt” are the mU/mL values normalized to the wildtype control value.
Consider B1, for which the “3 % isobutanol, 2 mM NAD (mU/mL)” value is 12.65 mU/mL.

In the case of B2, the “3 % isobutanol, 2 mM NAD (mU/mL)” value is 15.62 mU/mL.

Regarding B3, the “3 % isobutanol, 2 mM NAD (mU/mL)” value is 1.3 mU/mL.

Turning to B4, the “3 % isobutanol, 2 mM NAD (mU/mL)” value is reported as 2.16 mU/mL.

B5: the “3 % isobutanol, 2 mM NAD (mU/mL)” value amounted to 4.08 mU/mL.

As to B6, the “3 % isobutanol, 2 mM NAD (mU/mL)” value is given as 43.86 mU/mL.

With B7, the “3 % isobutanol, 2 mM NAD (mU/mL)” value worked out at 20.8 mU/mL.

Consider B8, for which the “3 % isobutanol, 2 mM NAD (mU/mL)” value was determined as 8.17 mU/mL.

The data set is the same for the next values; noted with them: 3 % isobutanol, 2 mM NAD; normalized to the wildtype control value.
Take B1: the relative to wt was 7.9.

For B2, the relative to wt was 9.8.

Molecule B3 showed a relative to wt of 0.8.

B4 displayed a relative to wt of 1.4.

As for B5, the relative to wt came out at 2.6.

Regarding B6, the relative to wt was 27.5.

In turn, B7 displayed a relative to wt of 13.

In turn, B8 showed a relative to wt of 5.1.

Still in this data set, the particulars now being: stability in 3 % isobutanol relative to wildtype.
As for B1, the “Stab. rel to wt” value was determined as 1.2.

Regarding B2, the “Stab. rel to wt” value was 1.1.

Turning to B3, the “Stab. rel to wt” value was 0.8.

Consider B4, for which the “Stab. rel to wt” value was determined as 1.

On to B5, for which the “Stab. rel to wt” value came to 0.8.

Take B6: the “Stab. rel to wt” value is given as 0.6.

Take B7: the “Stab. rel to wt” value came out at 0.6.

B8: the “Stab. rel to wt” value stood at 1.0.

A short description of the next data set: Screening of TaALDH variants, relative activity under standard conditions (2 mM NAD). Format: biochemical. The following applies: 1 mM D-glyceraldehyde, 50° C., pH 7, lysate supernatant. Here is the method:
as §1, §2
In the case of B1, the “2 mM NAD (mU/mL)” value came to 19.29 mU/mL.

As to B2, the “2 mM NAD (mU/mL)” value came to 25.87 mU/mL.

For B3, the “2 mM NAD (mU/mL)” value is recorded as 3 mU/mL.

B4: the “2 mM NAD (mU/mL)” value was found to be 3.76 mU/mL.

Regarding B5, the “2 mM NAD (mU/mL)” value is given as 9.09 mU/mL.

Take B6: the “2 mM NAD (mU/mL)” value is 125.38 mU/mL.

In the case of B7, the “2 mM NAD (mU/mL)” value was found to be 58.35 mU/mL.

Regarding B8, the “2 mM NAD (mU/mL)” value turned out to be 15.23 mU/mL.

Still in this data set, the particulars now being: mU/mL values normalized to the wildtype control value.
B1 yielded a relative to wt of 6.7.

B2 registered a relative to wt of 9.0.

In turn, B3 returned a relative to wt of 1.0.

B4 displayed a relative to wt of 1.3.

On to B5, for which the relative to wt was found to be 3.1.

As to B6, the relative to wt is given as 43.4.

B7 registered a relative to wt of 20.2.

For B8, the relative to wt worked out at 5.3.

The next data set is described as follows: Determination of specific activity of purified TaALDH variants. It counts as biochemical. Conditions: purified enzyme, 1 mM D-Glyceraldehyde, 50° C., pH 7. An excerpt: The Ta-aldh gene was cloned in pCBR-Chis expression vector as described above. Mutations F34L, F34M, Y399C, S405C and S405N were inserted into Ta-aldh gene by Quickchange PCR as described above. For recombinant expression, E. coli BL21 (DE3) was transformed with pCBR-Ta-aldh-Chis, pCBR-Ta-aldh-f34I-s405c-Chis, pCBR-Ta-aldh-f34m-s405n-Chis or pCBR-Ta-aldh-f34m-y399c-s405n-Chis. Each of the four variants was produced using the following protocol:
Large amounts of a TaALDH-Variant were produced with fed-batch fermentation in a 40 L Biostat Cplus bioreactor (Sartorius Stedim, Goettingen, Germany). Defined media was supplemented with 30 μg/ml kanamycin. After inoculation cells were grown at 30° C. for 24 h and induced with 0.3 mM IPTG. Enzyme expression was performed at 30° C. for 3 h. One fermentation produced 300 g cells (wet weight). Cells were harvested and lysed with Basic-Z Cell Disruptor (Constant Systems, Northants, UK) in loading buffer (200 mM NaCl; 20 mM Imidazol; 2.5 mM MgCl2; 50 mM NaPi, pH 6.2). After heat treatment at 50° C. for 30 min, cell debris and protein aggregates were separated from soluble fraction by centrifugation at 30,000 g at 20° C. for 30 min (Sorvall RC6+, SS-34 rotor, Thermo Scientific).
Soluble fraction of His-tagged TaALDH-Variant was further purified by Ni-NTA chromatography using ÄKTA UPC-900 FPLC-system (GE Healthcare, Freiburg, Germany). Supernatant was loaded on HiTrap FF-column and washed with two column volumes of loading buffer. Highly purified and concentrated TaALDH was fractioned after elution in imidazole buffer (200 mM NaCl; 500 mM imidazol; 50 mM NaPi, pH 6.2). Buffer was changed to 20 mM (NH4)HCO3 with HiPrep 26/10 Desalting column and TaALDH was lyophilized with an Alpha 2-4 LD Plus freeze dryer (Martin Christ GmbH, Osterode am Harz, Germany).
TaALDH activity was determined spectrophotometrically at 50° C. by measuring the rate of cofactor reduction at 340 nm in flat bottom microtiter plates (Grainer BioOne) with a Fluorostar Omega Photometer (BMG Labtech GmbH, Ortenberg, Germany). One unit of activity was defined as reduction of 1 μmol of cofactor per minute.
For B2, the “specific activity (U/mg) at 2 mM NAD” value amounted to 1.2 U/mg.

Consider B8, for which the “specific activity (U/mg) at 2 mM NAD” value worked out at 1 U/mg.

A short description of another data set: Cofactor acceptance of Ta-ALDH variants (10 mM NAD). Format: biochemical. The following applies: 10 mM NAD, 1 mM D-glyceraldehyde, 50° C., pH 7. Here is the method: as §1
Change in cofactor acceptance of Ta-ALDH variants was tested under standard assay conditions but with 10 mM NAD. After 20 min NADH formation was detected and compared to relative activity.
as §2
B1: the “10 mM NAD (mU/mL)” value came out at 66.82 mU/mL.

With B2, the “10 mM NAD (mU/mL)” value is on record as 74.31 mU/mL.

As for B3, the “10 mM NAD (mU/mL)” value is on record as 8.08 mU/mL.

B4: the “10 mM NAD (mU/mL)” value came out at 11.56 mU/mL.

In the case of B5, the “10 mM NAD (mU/mL)” value is recorded as 31.72 mU/mL.

With B6, the “10 mM NAD (mU/mL)” value came to 279.58 mU/mL.

Consider B7, for which the “10 mM NAD (mU/mL)” value is 181.89 mU/mL.

With B8, the “10 mM NAD (mU/mL)” value was found to be 46.83 mU/mL.

The data set is the same for the next values; noted with them: 10 mM NAD; normalized to the wildtype control value.
The molecule B1 had a relative to wt of 5.6.

B2 had a relative to wt of 6.2.

In turn, B3 had a relative to wt of 0.7.

B4 returned a relative to wt of 1.0.

The molecule B5 had a relative to wt of 2.7.

B6 returned a relative to wt of 23.5.

B7 showed a relative to wt of 15.3.

B8 gave a relative to wt of 3.9.

The same data set, now with this note: ratio of activity at 10 mM NAD to 2 mM NAD.
With B1, the 10 mM NAD /2 mM NAD was determined as 0.8.

Consider B2, for which the 10 mM NAD /2 mM NAD was 0.7.

Regarding B3, the 10 mM NAD /2 mM NAD turned out to be 0.7.

On to B4, for which the 10 mM NAD /2 mM NAD was determined as 0.7.

Take B5: the 10 mM NAD /2 mM NAD amounted to 0.8.

For the molecule B6, the 10 mM NAD /2 mM NAD turned out to be 0.5.

With B7, the 10 mM NAD /2 mM NAD was found to be 0.8.

On to B8, for which the 10 mM NAD /2 mM NAD was 0.7.
